Several values for one entry are separate records, joined by “and”; a condition that tells them apart may be missing. Identical values can stand only once.
Tests used:
[1] = target: bacteriophage λN peptide fused to the N-terminus of β-EGFP (bacteriophage λ; Aequorea victoria) [GFP: P42212]; experiment: cell-based or functional assay
[2] = target: β-fragment of EGFP (betaCys-fragment, 159-234 aa) biotinylated, tagged with streptavidin and a biotinylated 21-nt oligonucleotide (Aequorea victoria) [GFP: P42212]; experiment: cell-based or functional assay

t½ of fluorescence increase upon mixing [2]	Substance	average fluorescence over background (no RNA component), 0.01 mM IPTG [1]	signal/background ratio at reduced IPTG [1]
–	α-EGFP fused at its C-terminus to HTLV-1 Rex peptide (from UniProt P42212 1-158)	10 fold and 15 fold	10 fold and 20 fold
1.67 min	α-fragment of EGFP (alphaCys-fragment, 1-158) biotinylated, tagged with streptavidin and a biotinylated 21-nt oligonucleotide (from UniProt P42212 1-158; P22629 37-163)	–	–

Source: patent US20090029370A1
